{"source": "patent US6165749", "tested_on": "AccIII restriction endonuclease (L2V) L2V", "assay": "cleavage_in_vitro", "settings": "Takara data sheet conditions; about 16 times the level of the Acc bacterium"}
{"substance": "AccIII assay substrate DNA (data sheet conditions)", "values": [{"measurement": "activity (units per g wet cells)", "value": 8000}]}
